Values of other authors, collected in publication PMC5686428.

Biological target: HSV-1 glycoprotein D (soluble gD) (Herpes simplex virus type 1) (UniProt Q69091)
Experiment: not stated (cited)
Settings: SYBR Green assay: 1-200 nM protein, DApt (dissolved in PBS, heated 95 C 3 min, cooled on ice), 30 min, read at 520 nm; assay buffer, pH and temperature not …

Sequence of UniProt Q69091 (Q69091 26-331): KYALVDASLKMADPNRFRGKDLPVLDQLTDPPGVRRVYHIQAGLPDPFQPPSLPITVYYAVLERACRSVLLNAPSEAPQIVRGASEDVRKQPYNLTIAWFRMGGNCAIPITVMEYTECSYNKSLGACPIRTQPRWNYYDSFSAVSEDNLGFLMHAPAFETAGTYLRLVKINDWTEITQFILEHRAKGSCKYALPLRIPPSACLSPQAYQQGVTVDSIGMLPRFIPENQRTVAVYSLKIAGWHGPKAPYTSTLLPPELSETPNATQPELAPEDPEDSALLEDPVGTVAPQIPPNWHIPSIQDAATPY

GGGCACGAGAGAGGUCGUCCCCAGGGGAGAACUCGUGCUCCUGG [mini-1 RNA aptamer]
Kd: 4 nM
